System: MS2 coat protein
Test: apparent KD of MS2 coat protein; higher = weaker reporter binding
Conditions: Eterna round: R107
How it was run: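 For every design, apparent KD is the median of normalised binding-curve fits from its clusters. The RNA switches were transcribed on-chip from Illumina sequencing clusters and titrated with SNAP-549-labelled MS2 coat protein (twofold steps, 0.7 or 1.5 nM to 3 µM; 0.8–1.5 h to 10–20 min per step). Titrations used 100 mM Tris-HCl pH 7.5, 80 mM KCl, 4 mM MgCl2, without or with constant ligand.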

[1] = input ligand: theophylline 20 uM
[2] = input ligand: theophylline 2 mM
[3] = input ligand: tryptophan 2.4 mM

## GCAUCCUAGUCGGCCGCCACUGCAUGUUGGCAGUGCUGCAACAUACAUGAGGAUCACCCAUGUUGCAGGACCGGGACUAGGAUGC [(Trp1)-(MT2)''-(T1)'-(MT2)'-(Ms2)-(Trp2)_Design1]
Input ligand: arginine 13.2 mM
  apparent KD of MS2 coat protein: 23.8 nM
Input ligand: none
  apparent KD of MS2 coat protein: 24.3 nM
[1]
  apparent KD of MS2 coat protein: 28.7 nM
[2]
  apparent KD of MS2 coat protein: 25.2 nM
[3]
  apparent KD of MS2 coat protein: 22.8 nM

## GCAUCCUAGUCGGCCGCCACUGGGUGUACCCAGUGCUGGUACAAACAUGAGGAUCACCCAUGUACCAGGACCGGGACUAGGAUGC [(Trp1)-(MT2)''-(T1)'-(MT2)'-(Ms2)-(Trp2)_Design4]
Input ligand: arginine 13.2 mM
  apparent KD of MS2 coat protein: 10.8 nM
Input ligand: none
  apparent KD of MS2 coat protein: 15.6 nM
[1]
  apparent KD of MS2 coat protein: 21.2 nM
[2]
  apparent KD of MS2 coat protein: 16.7 nM
[3]
  apparent KD of MS2 coat protein: 13.8 nM

## GCAUCCUAGUCGGCCGCCACUGGUACGAAUACCUUCACCCGUGUGCACAUGAGGAUCACCCAUGUCAGGACCGGGACUAGGAUGC [SSTryp B #23]
Input ligand: arginine 13.2 mM
  apparent KD of MS2 coat protein: 9.58 nM
Input ligand: none
  apparent KD of MS2 coat protein: 9.22 nM
[1]
  apparent KD of MS2 coat protein: 13.8 nM
[2]
  apparent KD of MS2 coat protein: 9.91 nM
[3]
  apparent KD of MS2 coat protein: 9.61 nM

## GCAUGUUGGUGGUUUCUGCGAAGGCGGAAUCGAGGACCGGUACGGCCGCCACUCGGCGACAUGAGGAUCACCCAUGUGGUUAGGA [Exclusion - Tryptophan A (Freestyle 9)]
Input ligand: arginine 13.2 mM
  apparent KD of MS2 coat protein: 42.1 nM
Input ligand: none
  apparent KD of MS2 coat protein: 462 nM
[1]
  apparent KD of MS2 coat protein: 220 nM
[2]
  apparent KD of MS2 coat protein: 461 nM
[3]
  apparent KD of MS2 coat protein: 208 nM

## GCCGCUGCCGCGGUGUGUGUGGGUGGGUGACGAGGACCGGUACGGCCGCCACUCGCGAUCGCACAUGAGGAUCACCCAUGUGUAA [Exclusion Tryp A GF20]
Input ligand: arginine 13.2 mM
  apparent KD of MS2 coat protein: 13.3 nM
[1]
  apparent KD of MS2 coat protein: 20.7 nM
[2]
  apparent KD of MS2 coat protein: 19.6 nM

## GCCUAGCAGCGAAGGAGCGAGGUAAAUAAAUAAAUAAAUAACAAGAGGAUCACCCUUGUUCCUCAGGUAGGUCGCGCUGCUAGGC [SSAB Alternative Aptamer #1 NP+V+V2]
Input ligand: arginine 13.2 mM
  apparent KD of MS2 coat protein: 16 nM
Input ligand: none
  apparent KD of MS2 coat protein: 17.5 nM
[1]
  apparent KD of MS2 coat protein: 22.7 nM
[2]
  apparent KD of MS2 coat protein: 18.9 nM
[3]
  apparent KD of MS2 coat protein: 17.9 nM

## GCCUAGCAUCGAAGGAGCGGGCAUUACGCGCGAAAGCGCGAUACUUGAGGAACACCCAAGUCCCAGGUAGGUCGCGAUGCUAGGC [SSAB Alternative Aptamer #3 NP+V+V2]
Input ligand: arginine 13.2 mM
  apparent KD of MS2 coat protein: 31.4 nM
Input ligand: none
  apparent KD of MS2 coat protein: 70.9 nM
[1]
  apparent KD of MS2 coat protein: 127 nM
[2]
  apparent KD of MS2 coat protein: 94.9 nM
[3]
  apparent KD of MS2 coat protein: 83.5 nM

## GCGACACUCACGGCCGCCACUGAUUAGCCCAGUAUGGAGCCCACACAUGAGGAUCACCCAUGUCACAGGACCGGGUGGGUCUAUU [theeternabot_sameState_MS2_Trp_B_23]
Input ligand: arginine 13.2 mM
  apparent KD of MS2 coat protein: 22.8 nM
[1]
  apparent KD of MS2 coat protein: 42.1 nM
[2]
  apparent KD of MS2 coat protein: 25.5 nM

## GCGACCCUGAGAUCCUGCGUAACGUGAACACGAGGACCGGUACGGCCGCCACUCGAGAGAACAUGAGGAUCACCCAUGUCUGAGC [e-trypA-0(N)]
Input ligand: arginine 13.2 mM
  apparent KD of MS2 coat protein: 16.2 nM
[1]
  apparent KD of MS2 coat protein: 28.4 nM
[2]
  apparent KD of MS2 coat protein: 26.4 nM

## GCUAGGUCUACGGCCGCCACUAGACGUGGGUAAGACAUGAGGAUCACCCAUGUACUACGGGCGCUUAGGACCGGGUAGACCUAGC [SSTB NP+V+V2 #17 +-Same Structure]
Input ligand: arginine 13.2 mM
  apparent KD of MS2 coat protein: 116 nM
[1]
  apparent KD of MS2 coat protein: 187 nM
[2]
  apparent KD of MS2 coat protein: 285 nM

## GCUGCCAUACGAAGGAGCGCUGUUGCAAUGAGGCGAACAUGAGGAUCACCCAUGUGGCAGCAGCAGGUAGGUCGCGUAUGGCAGC [EAB #12]
Input ligand: arginine 13.2 mM
  apparent KD of MS2 coat protein: 33.4 nM
Input ligand: none
  apparent KD of MS2 coat protein: 42.5 nM
[1]
  apparent KD of MS2 coat protein: 53.6 nM
[2]
  apparent KD of MS2 coat protein: 52.7 nM
[3]
  apparent KD of MS2 coat protein: 44.2 nM

## GCUGUAAGUGCAGAUACCAGCAGGUGAUAUUUCAUAUGACAUGAGGAUCACCCAUGUAACUGCCCUUGGCAGCUGCACUUACAGC [SSTHB #9]
Input ligand: arginine 13.2 mM
  apparent KD of MS2 coat protein: 172 nM
[1]
  apparent KD of MS2 coat protein: 193 nM
[3]
  apparent KD of MS2 coat protein: 523 nM

## GCUGUACCAUGAAGGAGCGUCACGGAGUGCGAAUACACAUGAGGAUCACCCAUGUUUUUAUGGCAGGUAGGUCGCAUGGUACAGC [#02 Same State - Arginine B]
Input ligand: arginine 13.2 mM
  apparent KD of MS2 coat protein: 22.8 nM
Input ligand: none
  apparent KD of MS2 coat protein: 22.3 nM
[1]
  apparent KD of MS2 coat protein: 33.3 nM
[2]
  apparent KD of MS2 coat protein: 28.4 nM
[3]
  apparent KD of MS2 coat protein: 22.9 nM

## GGAACAUGAGGAUCACCCAUGUAAUCACGACGAGGACCGGUACGGCCGCCACUCGUAUUCACGCAAGGUAGAGGAAUACGUAGGC [theeternabot_exclusion_MS2_Trp_A_2]
Input ligand: arginine 13.2 mM
  apparent KD of MS2 coat protein: 15.4 nM
[1]
  apparent KD of MS2 coat protein: 17.6 nM
[2]
  apparent KD of MS2 coat protein: 14.3 nM

## GGACCAGGGAGCGAUACCAGCUUGAGUGUGCUGGCCAGGCACAUGAGGAUCACCCAUGUAGGCCCUUGGCAGCGCUCCCUGGUCC [#1 Exclusion - Theophylline B Attempt #28 (HarryS)]
Input ligand: arginine 13.2 mM
  apparent KD of MS2 coat protein: 9.06 nM
Input ligand: none
  apparent KD of MS2 coat protein: 9.45 nM
[1]
  apparent KD of MS2 coat protein: 16.5 nM
[2]
  apparent KD of MS2 coat protein: 12.3 nM
[3]
  apparent KD of MS2 coat protein: 14.1 nM

## GGAGCUACGUCGGCCGCCACUAGCGGGUAUUGCGUGUACAUGAGGAUCACCCAUGUAAUAUGGCCUAGGACCGGGACGUAGCUCC [Bison]
Input ligand: arginine 13.2 mM
  apparent KD of MS2 coat protein: 13.3 nM
Input ligand: none
  apparent KD of MS2 coat protein: 16.7 nM
[1]
  apparent KD of MS2 coat protein: 22.4 nM
[2]
  apparent KD of MS2 coat protein: 16.9 nM
[3]
  apparent KD of MS2 coat protein: 16.5 nM

## GGAUAGGACACGGCCGCCACUAGCUAGGAUACUAGCAACAUUUCCUCACUUGAGGAUCACCCAGGUAGGACCGGGUGUCCUAUCG
Input ligand: arginine 13.2 mM
  apparent KD of MS2 coat protein: 143 nM
Input ligand: none
  apparent KD of MS2 coat protein: 580 nM
[1]
  apparent KD of MS2 coat protein: 577 nM
[2]
  apparent KD of MS2 coat protein: 1430 nM
[3]
  apparent KD of MS2 coat protein: 620 nM

## GGAUAGGACACGGCCGCCACUAGCUAGGAUACUAGCAACAUUUCCUCAGAUGAGGAUCACCCAUCUAGGACCGGGUGUCCUAUCG
Input ligand: arginine 13.2 mM
  apparent KD of MS2 coat protein: 25.7 nM
Input ligand: none
  apparent KD of MS2 coat protein: 26 nM
[1]
  apparent KD of MS2 coat protein: 36.5 nM
[2]
  apparent KD of MS2 coat protein: 33.6 nM
[3]
  apparent KD of MS2 coat protein: 84.4 nM

## GGAUAGGACACGGCCGCCACUGCGGCUAGAUACUAGCACAUUUCCUCACAUGAGGAUCACCCAUGUAGGACCGGGUGUCCUAUCG
Input ligand: arginine 13.2 mM
  apparent KD of MS2 coat protein: 57.6 nM
[1]
  apparent KD of MS2 coat protein: 122 nM
[2]
  apparent KD of MS2 coat protein: 89 nM

## GGAUAGGACAGAAGGAGCGUGAGAUGCAAAGCAUCAUUCCUCACAUGAGGAUCACCCAUGUCACAGGUAGGUCGCUGUCCUAUCG [ArgBX 4]
Input ligand: arginine 13.2 mM
  apparent KD of MS2 coat protein: 78.3 nM
Input ligand: none
  apparent KD of MS2 coat protein: 95.1 nM
[1]
  apparent KD of MS2 coat protein: 119 nM
[2]
  apparent KD of MS2 coat protein: 110 nM
[3]
  apparent KD of MS2 coat protein: 112 nM

## GGCACACAUGAGGAUCACCCAUGUGGCGAUACCAGUUGAUGGUAAAACCCUUGGCAGCGCCAGUCACAUGCAGAUAGUUACUGAA [theeternabot_sameState_MS2_Theo_A_32]
Input ligand: arginine 13.2 mM
  apparent KD of MS2 coat protein: 14.2 nM
[1]
  apparent KD of MS2 coat protein: 19.4 nM
[3]
  apparent KD of MS2 coat protein: 15.8 nM

## GGCACAUAGUCGGCCGCCACUAGUGGGAAAUGGGAGAACAUGAGGAUCACCCAUGUAGCGUAGCCUAGGACCGGGACUAUGUGCC [Elephant]
Input ligand: arginine 13.2 mM
  apparent KD of MS2 coat protein: 85.3 nM
[1]
  apparent KD of MS2 coat protein: 172 nM
[2]
  apparent KD of MS2 coat protein: 231 nM

## GGCACUCUGUAAGAUACCAGACGUCGGUGCUUACAUGAGGAUCACCCAUGUUGCUUUUUAGUCCCUUGGCAGCUUCGGAUAACCA [Oniste]
Input ligand: arginine 13.2 mM
  apparent KD of MS2 coat protein: 88.6 nM
[1]
  apparent KD of MS2 coat protein: 557 nM
[3]
  apparent KD of MS2 coat protein: 230 nM

## GGCCGAUGGUGCGAUACCAGCUUGAGUGUACUGGCCAGGUACAUGAGGAUCACCCAUGUAAGCCCUUGGCAGCGCGUCAAAGGCC [#1 Exclusion - Theophylline B Attempt #20 (HarryS)]
Input ligand: arginine 13.2 mM
  apparent KD of MS2 coat protein: 7.09 nM
Input ligand: none
  apparent KD of MS2 coat protein: 11.3 nM
[1]
  apparent KD of MS2 coat protein: 17.6 nM
[2]
  apparent KD of MS2 coat protein: 24.2 nM
[3]
  apparent KD of MS2 coat protein: 10.5 nM

## GGGACAUGAGGAUCACCCAUGUACCGGUCCCGAGGACCGGUACGGCCGCCACUCGAUGACCUCAUAGUCUGCCUGAGCAGCAGAC [Abebeti]
Input ligand: arginine 13.2 mM
  apparent KD of MS2 coat protein: 49.1 nM
[1]
  apparent KD of MS2 coat protein: 96.6 nM
[2]
  apparent KD of MS2 coat protein: 140 nM

## GGGAGAUGAAUAGAAUGAGAUGACACAGAAGGAGCGUGAAUUAACACAGGUAGGUCGCUGACAACAUGAGGAUCACCCAUGUAUU [Same State Arginine A GF3]
Input ligand: arginine 13.2 mM
  apparent KD of MS2 coat protein: 18.1 nM
Input ligand: none
  apparent KD of MS2 coat protein: 15.2 nM
[1]
  apparent KD of MS2 coat protein: 21.3 nM
[2]
  apparent KD of MS2 coat protein: 19.5 nM
[3]
  apparent KD of MS2 coat protein: 18.9 nM

## GGGCAAGGUGCCGCCUUCGCCCACUGAGAAGGAGCGCAGGGUACUGCAGGUAGGUCGCUCAGACAUGAGGAUCACCCAUGUAGGA [Esislees]
Input ligand: arginine 13.2 mM
  apparent KD of MS2 coat protein: 32.4 nM
Input ligand: none
  apparent KD of MS2 coat protein: 54.5 nM
[1]
  apparent KD of MS2 coat protein: 89.9 nM
[2]
  apparent KD of MS2 coat protein: 76 nM
[3]
  apparent KD of MS2 coat protein: 57.6 nM

## GGGCCCGGGCCGGAAACGGCCCGGGCCCUGCGAGGACCGGUACGGCCGCCACUCGCUCGAGUGGGUACAUGAGGAUCACCCAUGU [#17 Exclusion Tryptophan A]
Input ligand: arginine 13.2 mM
  apparent KD of MS2 coat protein: 17.7 nM
Input ligand: none
  apparent KD of MS2 coat protein: 28.4 nM
[1]
  apparent KD of MS2 coat protein: 45.8 nM
[2]
  apparent KD of MS2 coat protein: 33.3 nM
[3]
  apparent KD of MS2 coat protein: 31.9 nM

Source: the supplement of paper PMC9170038
